B1: HDV Ribozyme (parent)
chain: GGCCGGCAUGGUCCCAGCCUCCUCGCUGGCGCCGGCUGGGCAACAUUCCGAGGGGACCGUCCCCUCGGUAAUGGCGAAUGGGACCCA

Variants of: B1
Assay: self-cleavage, relative activity (ratio to wild type); higher = more cleavage; co-transcriptional

Variant | self-cleavage
U46C U79C | 0.432
U69C G74A | 0.554
C13G G54C | 0.115
C26G G59A | 0.903
C3A C84A | 0.391
G2A C75G | 0.0615
C3U G81C | 0.0563
A42U | 0.529
G5A C61A | 0.0573
C66A G76U | 0.981
G38U U79A | 0
C4G G34C | 0.782
C41U C86A | 1.04
G67U A71C | 0.892
U9G G25C | 0
G25A C58U | 0.248
G10C G34C | 0.289
G40A U79C | 0.41
G59A G76U | 1.21
C18A U47C | 0.0536
U46G A77U | 0.0831
C13G C14U | 0.208
G38A C57A | 0.128
C57G U69C | 1.06

Variant | self-cleavage
U20A C30A | 0.0739
C58A C75U | 0.158
C14G C49A | 0.35
C4U U72C | 0.554
C4A G53C | 0.344
C32G A78G | 0.0536
C15A C22A | 0.111
C44G U46C | 0.748
G6A C63A | 0.407
C61G U72A | 0.457
C41A C62U | 0.869
G38A A43C | 0.0449
C22U U27G | 0.554
A83G C85A | 0.677
C57G C75G | 0.185
A16U G28U | 0.222
U60G C75U | 0.231
U27G G76U | 0.855
G1C C4G | 0
G25C G55C | 0.106
U37G A78C | 0.196
A43U G67A | 0.237
G67U U79G | 0.516
C41U A87C | 1.09

Variant | self-cleavage
C62A C84A | 0.862
G1U U9A | 0.389
U9C C62G | 0.166
G17A C84U | 0.598
A16U G35A | 0.342
C32A A43G | 0.119
C19A C21G | 0.166
A8G C30G | 0.128
A70C G82C | 0
A43C G52C | 0.386
C4G G40U | 0.381
G38U G53U | 0.342
G2A U46A | 0.0601
U65A A87C | 1.04
A42U A78G | 0.264
G73U G80A | 0.0839
G2A G17C | 0
G52A C63G | 0.415
C33U U69G | 0.807
G38U G80C | 0.108
C18A A83U | 0.237
C41U C44U | 0.516
G11A U37G | 0.142
G31U G35U | 0.0443

Variant | self-cleavage
G31U C44U | 0.156
G10U C36U | 0.472
C7G C30U | 0.138
U27A C63U | 0.813
G2U G82A | 0.0189
G5A A43U | 0.089
A45U U72G | 0.755
G28C G54A | 0.0639
G39U C44U | 0.211
C63G G67U | 0.293
C30A G31U | 0.0733
C49U G76U | 1.18
U60C G67A | 0.776
G1U C64U | 0.451
G28A G67U | 0.0536
G50A A87U | 1.08
U12G G29U | 0.0489
C41U | 0.979
G10A C33A | 0.111
G1C G6U | 0.217
A8G A78U | 0.266
U23A G80U | 0.113
G76U G82C | 0.277
C4A U65G | 0.26

Variant | self-cleavage
G2C G74U | 0.1
C22A A70G | 0.203
U20G C21A | 0.142
A71G A83G | 1.09
U23A G38A | 0.0963
U60C C64G | 0.776
C63U G73A | 0.831
G25C G31C | 0.0978
A8C G67C | 0.623
C32G A77G | 0.0475
A16C A51C | 0.612
C26G C75U | 0.262
G1A C26U | 0
U9A C14U | 1.11
A43C C75G | 0.314
G29C G82C | 0.0739
G1C C66U | 0.208
G28A A78C | 0.0378
G1A U47G | 0
G38C U69A | 0.095
G6C G40C | 0.175
G50C C64G | 0.383
G54A C84A | 0.496
C33U G40C | 0.286

Variant | self-cleavage
G35C C44U | 0.0536
A42C G82U | 0.138
G10A G74U | 0.257
C3U G40U | 0.594
C3U A43C | 0.293
G34U G40C | 0.0415
G31C A42C | 0.128
C61U A83G | 0.692
C49G C61U | 0.432
U9C U47G | 1.42
U47G G55C | 1.07
A8C G52A | 0.831
C44A G73C | 0.696
U37C U79G | 0.465
A8G G11A | 0.196
G53U C63G | 1.02
G2C A8C | 0.0639
C48A A70C | 0.957
U9G A56U | 1.01
C4A G53A | 0.201
G53A U72C | 0.731
C3A G10U | 0.23
U27A A56C | 0.914
A70G G73A | 0.432

Variant | self-cleavage
G31C C32A | 0.0875
U20G G67U | 0.467
C64A U72C | 0.465
G2C G74C | 0.0308
G1A U47A | 0.145
G73U G74A | 0.172
C36A G50U | 0.0923
A16U G31U | 0.225
C4A C41U | 0.163
A42C U47A | 0.0594
U20C A56C | 0.0615
C44A C58G | 0.831
C21A C26G | 0.266
U46C A71C | 0.772
C26G G35A | 0.326
U60G A77C | 0.227
C18G U27G | 0.128
G10A C48A | 0.739
A8G C14A | 0.0791
C3U U12A | 0.0817
C19A G80A | 0.0329
C22A C57G | 0.543
C41U U69G | 0.946

From the RNAGym collection of RNA variant scans (doi:10.7554/elife.80360)
